From patent publication US20050186662A1

Molecular target: neonatal Fc receptor (FcRn) of the neonatal rat small intestine (rat) (UniProt P13599)
Assay: cell-based or functional assay

Chain of UniProt P13599 (P13599 23-366, form in doubt): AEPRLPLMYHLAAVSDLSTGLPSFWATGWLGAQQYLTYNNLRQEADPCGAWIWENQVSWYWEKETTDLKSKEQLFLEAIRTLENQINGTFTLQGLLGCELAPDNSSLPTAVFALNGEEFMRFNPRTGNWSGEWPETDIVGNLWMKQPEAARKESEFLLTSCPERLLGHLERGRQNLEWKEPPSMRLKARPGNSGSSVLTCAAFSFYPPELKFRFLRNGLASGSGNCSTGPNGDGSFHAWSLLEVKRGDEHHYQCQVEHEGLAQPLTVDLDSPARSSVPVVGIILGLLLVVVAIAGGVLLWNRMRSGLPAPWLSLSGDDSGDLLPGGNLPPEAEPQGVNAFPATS

Substance	reduction in transport (oral delivery of 125I-labelled protein into neonatal rat serum) in the presence of 300-fold excess unlabeled human IgG1, by phosphorimage analysis
heterodimer FSH-Fc (Fc fusion)	53%
single-chain FSH-Fc (from UniProt P01225 19-129; P01215 25-116) (Fc fusion)	83%
